In patent US20190336589A1 (published 2019):

T1: PLP (myelin proteolipid protein) peptide on I-A^s (mouse, 3rd amino acid from the N terminus substituted from cysteine to serine; contains the serine-substituted epitope of SEQ ID NO: 20)
T1 peptide: RVSHSLGKWLGHPDKF

T2: Hen egg lysozyme (HEL) peptide on I-A^k (mouse)
T2 peptide: DGSTDYGILQINSR

B1: 2E5 TCR (TCR, V domains shown)
Valpha: GEKVEQHQSTLSVREGDSAVINCTYTDTASSYFPWYKQEAGKSLHFVIDIRSNVDRKQSQRLTVLLDKKAKRFSLHITATQPEDSAIYFCAASPGANTGKLTFGHGTILRVHP
Vbeta: VAGVTQTPRYLVKEEGQKAHMSCSPEKGHTAFYWYQQNQKQELTFLINFRNEEIMEQTDLVKKRFSAKCSSNSQCILEILSSEEDDSALYLCASSLVRGNSDYTFGSGTRLLVI
B2: 3A9 TCR (TCR, V domains shown)
Valpha: AQSVTQPDARVTVSEGASLQLRCKYSYSGTPYLFWYVQYPRQGLQLLLKYYSGDPVVQGVNGFEAEFSKSNSSFHLRKASVHWSDSAVYFCALNSGGSNAKLAFGKGSKLSVKS
Vbeta: AVTQSPRNKVAVTGGKVTLSCNQTNNHNNMYWYRQDTGHGLRLIHYSYGAGSTEKGDIPDGYKASRPSQENFSLILELATPSQTSVYFCASGDESALPELYFGEGSKLTVL

Key:
[1] = biological target: T1, PLP (myelin proteolipid protein) …; experiment: activation reporter or marker
Protocol: The cultured cells were collected, and the 2E5 reporter T cells were stained with an APC-labeled anti-CD45 antibody (clone name: 30-F11, eBioscience). Then, the stained 2E5 reporter cells were analyzed by flow cytometry so as to determine the proportion of the GFP-positive cells in the CD45-positive cells. As Control 1, the proportion of the GFP-positive cells in the CD45-positive cells was analyzed in the same manner, except that the above-described medium was added instead of the IgG antibody.

[2] = biological target: T2, Hen egg lysozyme (HEL) peptide on I-A^k; experiment: binding, other
[3] = biological target: Hen egg lysozyme (HEL) peptide on I-A^k (mouse); experiment: binding, other; remark: listed apart in the source
Target sequence in this assay (peptide, as listed by the source): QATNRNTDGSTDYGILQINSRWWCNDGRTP

Row | Binder | binding result [1] | binding result [2] | binding result [3]
1 | B1 | recognises |  | 
2 | B2 |  | recognises | recognises
